Columns and labels:
Assay in all cases: pull-down; GFP-CEP55 proteins (355 nM) bound to GFP-Trap Magnetic Agarose beads; taxol-polymerised MTs (545 nM tubulin), pH adapted to 7.5, incubated 1 h at 4 °C; 6 washes; bound MTs detected by Western blot against β tubulin; MTs bound to CEP55^FL set as 100%
[1] = molecular target: His-GFP-CEP55^1–428 (C-terminus, aa 429–464, deleted) (UniProt Q53EZ4)
[2] = molecular target: His-GFP-CEP55^59–428 (N- and C-termini deleted) (UniProt Q53EZ4)
[3] = molecular target: His-GFP-CEP55^59–464 (N-terminus, aa 1–58, deleted) (UniProt Q53EZ4)

Substance: Microtubules polymerised with taxol from tubulin prepared from porcine brain (from UniProt P02550 1-451; Q767L7 1-444) (complex)
- percent reduction of MT binding against CEP55^FL [1]: 20%
- percent reduction of MT binding against CEP55^FL [2]: 60%
- percent reduction of MT binding against CEP55^FL [3]: 20%

Reference: paper PMC11353242
